Positions count from the first letter of the chain named. Where “and” joins values, the source holds several entries; their conditions need not be identical. Equal values may be shown once.
B1: 83v2cy5-mal-PEG4-VC-MMAF (designed binder)
chain: MLPAPKNLVVSEVTEDSARLSWDDPWAFYESFLIQYQESEKVGEAIVLTVPGSERSYDLTGLKPGTEYTVSIYGVHNVYKDTNMRGLPLSAIFTTGGHHHHHHC
modifications: mal-PEG4-VC-MMAF on the cysteine
B2: 83v2cy5-mal-PEG4-VK-MMAF (designed binder)
chain: B1 chain
modifications: mal-PEG4-VK-MMAF on the cysteine
B3: ECB38 (designed binder)
chain: MLPAPKNLVVSEVTEDSARLSWDDPWAFYESFLIQYQESEKVGEAIVLTVPGSERSYDLTGLKPGTEYTVSIYGVHNVYKDTNMRGLPLSAIFTTAPAPAPAPAPLPAPKNLVVSRVTEDSARLSWTAPDAAFDSFWIRYFEFLGSGEAIVLTVPGSERSYDLTGLKPGTEYVVNIMGVKGGKISPPLSAIFTTAPAPAPAPAPLAEAKVLANRELDKYGVSDYYKNLINNAKTVEGVKALLDEILAALP
B4: ECB147v3-PEG24 (designed binder)
chain: B3 chain with K63C, A98C, K167C, G178S, K183S, A197C
modifications: PEG24-maleimide on the engineered cysteines
B5: ECB147v5-PEG24 (designed binder)
chain: B3 chain with K63C, K167C, G178S, K183S
modifications: PEG24-maleimide on the engineered cysteines
B6: ECB147v7-PEG24 (designed binder)
chain: B3 chain with A98C, G178S, K183S, A197C
modifications: PEG24-maleimide on the engineered cysteines
B7: ECB147v6-PEG24 (designed binder)
chain: B3 chain with K63C, G178S, K183S
modifications: PEG24-maleimide on the engineered cysteine
B8: P54CR4-31 (designed binder)
chain: LPAPKNLVVSEVTEDSLRLSWTAPDAAFDSFLIQYQESEKVGEAINLTVPGSERSYDLTGLKPGTEYTVSIYGVLGSYVFEHDVMLPLSAEFTT
B9: P53A1R5-17 (designed binder)
chain: LPAPKNLVVSEVTEDSLRLSWADPHGFYDSFLIQYQESEKVGEAINLTVPGSERSYDLTGLKPGTEYTVSIYGVHNVYKDTNMRGLPLSAEFTT
B10: P54AR4-48 (designed binder)
chain: B9 chain with A22D, H25R, D29E
B11: P54AR4-73 (designed binder)
chain: B9 chain with A22T, D23W, H25Y, G26A, F27D, Y28L
B12: P54AR4-83 (designed binder)
chain: B9 chain with A22D, H25W, G26A, D29E
B13: P54AR4-17 (designed binder)
chain: B9 chain with A22T, D23Y, P24D, H25R, G26D, F27G
B14: P114AR5P74-A5 (designed binder)
chain: LPAPKNLVVSRVTEDSARLSWTAPDAAFDSFWIRYDEVVVGGEAIVLTVPGSERSYDLTGLKPGTEYYVNILGVKGGSISVPLSAIFTT

biological target: T1, EGFR on cells (A431, NCI-H292, NCI-H322, NCI-H441) (human, UniProt P00533 25-1210); assay: cell-based or functional assay

Row | Binder | IC50 A431 (nM), cell viability [nM] | IC50 H1537 (nM), cell viability
1 | B1 | 1.6 | 1.19 nM and 1.05 nM
2 | B2 | 3.9 | –

biological target: T1, EGFR on cells (A431, NCI-H292, …); assay: cell-based or functional assay; remark: another data set of the same source

Row | Binder | EGF-stimulated EGFR phosphorylation in NCI-H292 cells IC50 [nM]
3 | B3 | 2.3
4 | B4 | 1.6
5 | B5 | 0.9
6 | B6 | 1.4
7 | B7 | 1.4

biological target: T2, c-Met on cells (NCI-H441, NCI-H292, U87-MG) (human, UniProt P08581 25-1390); assay: cell-based or functional assay
T2 sequence (P08581 other isoform, or with tags, fused parts or gaps limits assumed): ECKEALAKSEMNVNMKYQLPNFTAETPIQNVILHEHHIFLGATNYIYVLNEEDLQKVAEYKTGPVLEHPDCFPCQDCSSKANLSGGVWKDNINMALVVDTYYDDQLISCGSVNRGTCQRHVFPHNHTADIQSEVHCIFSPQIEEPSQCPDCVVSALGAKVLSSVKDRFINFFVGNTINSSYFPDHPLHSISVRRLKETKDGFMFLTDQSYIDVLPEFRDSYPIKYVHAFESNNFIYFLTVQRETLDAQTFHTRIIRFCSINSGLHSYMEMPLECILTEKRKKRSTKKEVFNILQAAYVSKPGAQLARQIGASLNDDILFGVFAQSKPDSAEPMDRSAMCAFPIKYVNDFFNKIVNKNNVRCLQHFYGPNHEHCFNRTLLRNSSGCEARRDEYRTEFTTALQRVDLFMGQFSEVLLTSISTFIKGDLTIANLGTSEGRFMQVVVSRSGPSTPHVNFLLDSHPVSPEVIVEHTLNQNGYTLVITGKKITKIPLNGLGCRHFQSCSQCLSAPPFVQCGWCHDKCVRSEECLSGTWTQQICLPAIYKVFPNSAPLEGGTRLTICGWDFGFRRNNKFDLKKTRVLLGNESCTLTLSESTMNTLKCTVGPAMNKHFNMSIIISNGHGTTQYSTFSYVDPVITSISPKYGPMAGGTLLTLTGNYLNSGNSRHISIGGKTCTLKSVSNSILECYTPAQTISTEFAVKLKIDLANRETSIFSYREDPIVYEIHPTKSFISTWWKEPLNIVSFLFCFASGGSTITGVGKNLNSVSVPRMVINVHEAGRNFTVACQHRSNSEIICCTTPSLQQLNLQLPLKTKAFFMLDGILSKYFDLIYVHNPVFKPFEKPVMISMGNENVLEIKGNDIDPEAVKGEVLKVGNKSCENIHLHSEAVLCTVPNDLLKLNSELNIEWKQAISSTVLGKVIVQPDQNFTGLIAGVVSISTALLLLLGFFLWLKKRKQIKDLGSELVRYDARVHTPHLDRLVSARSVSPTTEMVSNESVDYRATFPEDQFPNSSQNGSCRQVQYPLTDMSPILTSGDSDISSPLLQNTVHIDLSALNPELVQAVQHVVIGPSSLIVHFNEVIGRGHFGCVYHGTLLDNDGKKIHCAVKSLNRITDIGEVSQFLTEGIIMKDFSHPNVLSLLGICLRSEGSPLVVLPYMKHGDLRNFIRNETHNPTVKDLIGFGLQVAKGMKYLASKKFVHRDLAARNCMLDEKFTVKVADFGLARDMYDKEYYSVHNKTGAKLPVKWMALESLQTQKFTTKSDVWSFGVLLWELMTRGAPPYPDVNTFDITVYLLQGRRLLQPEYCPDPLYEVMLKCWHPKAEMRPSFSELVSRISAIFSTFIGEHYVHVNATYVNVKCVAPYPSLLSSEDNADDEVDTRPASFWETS

Row | Binder | HGF-stimulated c-Met phosphorylation in NCI-H292 cells IC50 [nM]
8 | B3 | 1.3
9 | B4 | 0.5
10 | B5 | 0.4
11 | B6 | 0.5
12 | B7 | 0.4

biological target: T1, EGFR on cells (A431, NCI-H292, …); assay: cell-based or functional assay; remark: another data set of the same source

Row | Binder | Phospho-EGFR IC50, A431 cells [nM]
13 | B8 | 179
14 | B9 | > 2500
15 | B10 | 170
16 | B11 | 141
17 | B12 | 18
18 | B13 | 184

biological target: T2, c-Met on cells (NCI-H441, NCI-H292, …); assay: cell-based or functional assay; remark: another data set of the same source

Row | Binder | c-Met phosphorylation in NCI-H292 cells IC50 [nM]
19 | B14 | 610
